Test results reported in publication PMC10597343.

Target: T1, AcrR (Escherichia coli) (UniProt P0ACS9)
T1 sequence: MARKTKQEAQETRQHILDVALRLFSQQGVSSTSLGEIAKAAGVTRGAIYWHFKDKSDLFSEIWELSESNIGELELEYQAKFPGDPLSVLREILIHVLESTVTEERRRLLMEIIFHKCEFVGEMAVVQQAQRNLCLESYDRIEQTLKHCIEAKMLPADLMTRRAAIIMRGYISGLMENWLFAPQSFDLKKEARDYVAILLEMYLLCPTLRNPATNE
Test: EMSA
Settings: EMSA with LightShift Chemiluminescent EMSA Kit, AcrR 0, 0.4 and 1 uM, as in ref 35; buffer, salt, pH and temperature not stated

Sequence	binding
CTTGCCATGCGATTTCCTTTTATCTTTCGACACGTAAAACGAATACCGGGGTTATCGGTCTGAATTGCGCAAAGTTTACGTTTAATTGTTTTTTTTAATAGCGGGAATAAGGGGCAGAGAAAAGAGTATTTCGGCGACTAACAAAAAATGGCTGTTTTTGAAAAAAATTCTAAAGGTTGTTTTACGACAGACGATAACAGGGTTGACGGCGATTGAGCCGACGGGTGGAAACCCAATACGTAATCAACGA (double strand) [fliDSTp]	no binding
TGCAAGTAGTAAATATGACAAGTTGATGTCATAAATGTGTTTCAGCAACTCGGAGGTATGCATTATTCCCACCCAGAATAACCAACTTTATTTTTATGCGGTTTCACCGCACCCCGTGATGTCGCCGGGAAGCCCCGGTAAAAAATAATTAGCATTAGAATAGTTGCGAT (double strand) [flhDCpS2]	no binding
